Test results as given in the supplement of paper PMC10126150.
± gives the standard deviation of the averaged measurements.

System: ATP
Test: switch fluorescence ratio, 500 uM ATP over buffer (Cy3 cluster intensity, sum of 5 cycles each) (fold (ratio)); higher = stronger signal-on switching upon ATP binding; sequences stand for … in TCGTCGGCAGCGTCAGATGTGTATAAGAGACAGTTTTTTTTTTTTTTTTTTTTTTTTT…TC
Conditions: aptamer strand: ATP DNA aptamer (quencher-CACCTGGGGGAGTATTGCGGAGGAAGG + anchor), 100 nM annealed; ATP concentration: 500 uM
Outline: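 Values give the fluorescence ratio for each switch-domain sequence, averaged from per-cluster ratios of summed target-cycle to summed buffer-cycle Cy3 intensity. The Cy3-labelled switching-strand clusters sat on a modified Illumina MiSeq flow-cell, were annealed to 100 nM quencher-labelled ATP aptamer, and were imaged in selection buffer, then after 15 min with 500 uM ATP at 22 °C. Five cycles ran with NaOH stripping and re-annealing between them, and clusters outside 100-1000 RFU were excluded.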
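Note: ATP exposure 15 min at 22 °C before imaging.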

GGGGGCATTA
switch fluorescence ratio: 0.999 ± 0.016

GGGGGCCAGC
switch fluorescence ratio: 1.01 ± 0.02

GGGGGCCCCA
switch fluorescence ratio: 1.01 ± 0.022

GGGGGCCCGG
switch fluorescence ratio: 1.03 ± 0.045

GGGGGCGCCA
switch fluorescence ratio: 1.02 ± 0.02

GGGGGCGGTT
switch fluorescence ratio: 1.02 ± 0.026

GGGGGCTGCG
switch fluorescence ratio: 1.04 ± 0.051

GGGGGGAAGC
switch fluorescence ratio: 1.04 ± 0.064

GGGGGGAGCT
switch fluorescence ratio: 1.02 ± 0.057

GGGGGGAGGG
switch fluorescence ratio: 1 ± 0.052

GGGGGGAGTA
switch fluorescence ratio: 1.01 ± 0.056

GGGGGGCCGG
switch fluorescence ratio: 0.996 ± 0.033

GGGGGGCGAG
switch fluorescence ratio: 0.9864 ± 0.0052

GGGGGGCGGA
switch fluorescence ratio: 1.01 ± 0.039

GGGGGGCGTC
switch fluorescence ratio: 1.02 ± 0.016

GGGGGGCTTT
switch fluorescence ratio: 0.986 ± 0.022

GGGGGGGAGC
switch fluorescence ratio: 1.01 ± 0.033

GGGGGGGATG
switch fluorescence ratio: 0.991 ± 0.029

GGGGGGGGAA
switch fluorescence ratio: 1.01 ± 0.063

GGGGGGGGAT
switch fluorescence ratio: 1.01 ± 0.029

GGGGGGGGTG
switch fluorescence ratio: 1.02 ± 0.068

GGGGGGGGTT
switch fluorescence ratio: 1 ± 0.042

GGGGGGGTGT
switch fluorescence ratio: 1.01 ± 0.05

GGGGGGTAAT
switch fluorescence ratio: 1.01 ± 0.026

GGGGGGTACA
switch fluorescence ratio: 1.01 ± 0.047

GGGGGGTAGC
switch fluorescence ratio: 0.9761 ± 0.0061

GGGGGGTATA
switch fluorescence ratio: 1 ± 0.048

GGGGGGTCCG
switch fluorescence ratio: 1.01 ± 0.074

GGGGGGTCCT
switch fluorescence ratio: 1 ± 0.018

GGGGGGTCGG
switch fluorescence ratio: 1 ± 0.024

GGGGGGTCTG
switch fluorescence ratio: 1 ± 0.037

GGGGGGTGAA
switch fluorescence ratio: 1.02 ± 0.012

GGGGGGTGAC
switch fluorescence ratio: 1 ± 0.035

GGGGGGTGGA
switch fluorescence ratio: 1.01 ± 0.028

GGGGGGTGGT
switch fluorescence ratio: 0.978 ± 0.025

GGGGGGTTCA
switch fluorescence ratio: 1.01 ± 0.026

GGGGGGTTCG
switch fluorescence ratio: 0.978 ± 0.021

GGGGGTACTA
switch fluorescence ratio: 0.96 ± 0.019

GGGGGTCCTC
switch fluorescence ratio: 1.001 ± 0.01

GGGGGTCGTT
switch fluorescence ratio: 1.02 ± 0.051

GGGGGTGAAG
switch fluorescence ratio: 0.971 ± 0.016

GGGGGTGTGT
switch fluorescence ratio: 1.01 ± 0.035

GGGGGTTCGG
switch fluorescence ratio: 0.992 ± 0.021

GGGGGTTGTA
switch fluorescence ratio: 0.978 ± 0.054

GGGGGTTTGT
switch fluorescence ratio: 0.983 ± 0.011

GGGGTAAGAT
switch fluorescence ratio: 0.963 ± 0.054

GGGGTACGTG
switch fluorescence ratio: 1 ± 0.029

GGGGTACTTG
switch fluorescence ratio: 1.01 ± 0.02

GGGGTAGAGG
switch fluorescence ratio: 0.977 ± 0.015

GGGGTAGATC
switch fluorescence ratio: 1.05 ± 0.013

GGGGTAGGCC
switch fluorescence ratio: 0.995 ± 0.018

GGGGTAGGGG
switch fluorescence ratio: 1.01 ± 0.026

GGGGTAGTGC
switch fluorescence ratio: 0.998 ± 0.015

GGGGTATACC
switch fluorescence ratio: 0.956 ± 0.021

GGGGTATAGT
switch fluorescence ratio: 0.98 ± 0.021

GGGGTATCGG
switch fluorescence ratio: 0.9828 ± 0.0085

GGGGTATTCT
switch fluorescence ratio: 1.01 ± 0.013

GGGGTCAGAT
switch fluorescence ratio: 0.986 ± 0.051

GGGGTCATGT
switch fluorescence ratio: 1.03 ± 0.015

GGGGTCATTG
switch fluorescence ratio: 0.988 ± 0.023

GGGGTCGTTG
switch fluorescence ratio: 0.995 ± 0.017

GGGGTCTAGT
switch fluorescence ratio: 1.01 ± 0.026

GGGGTCTTCC
switch fluorescence ratio: 1.07 ± 0.041

GGGGTGAAGG
switch fluorescence ratio: 1.01 ± 0.025

GGGGTGAAGT
switch fluorescence ratio: 1.04 ± 0.017

GGGGTGACTG
switch fluorescence ratio: 1.05 ± 0.048

GGGGTGCAGC
switch fluorescence ratio: 1.05 ± 0.02

GGGGTGCAGT
switch fluorescence ratio: 0.992 ± 0.022

GGGGTGCCCA
switch fluorescence ratio: 0.984 ± 0.044

GGGGTGCCTG
switch fluorescence ratio: 0.999 ± 0.039

GGGGTGGAGC
switch fluorescence ratio: 1.05 ± 0.014

GGGGTGGATG
switch fluorescence ratio: 0.997 ± 0.018

GGGGTGGCAG
switch fluorescence ratio: 0.975 ± 0.027

GGGGTGGCGA
switch fluorescence ratio: 1.01 ± 0.045

GGGGTGGGCA
switch fluorescence ratio: 1 ± 0.011

GGGGTGGGGT
switch fluorescence ratio: 1 ± 0.052

GGGGTGTAAG
switch fluorescence ratio: 0.992 ± 0.02
